Values quoted from earlier work, collected in US20030158199A1, “Novel compounds for inhibition of Tie-2” (KYLIX, B.V., priority 2002, published 2003).

Test system: tumor metastasis
Settings: delivered at the time of surgical excision of primary tumors, mouse model; cited from earlier work

B1: Ad-ExTek: a soluble adenoviral expressed extracellular domain of Tie-2 (protein, UniProt Q02763 23-748, looked up)
extracellular domain: AMDLILINSLPLVSDAETSLTCIASGWRPHEPITIGRDFEALMNQHQDPLEVTQDVTREWAKKVVWKREKASKINGAYFCEGRVRGEAIRIRTMKMRQQASFLPATLTMTVDKGDNVNISFKKVLIKEEDAVIYKNGSFIHSVPRHEVPDILEVHLPHAQPQDAGVYSARYIGGNLFTSAFTRLIVRRCEAQKWGPECNHLCTACMNNGVCHEDTGECICPPGFMGRTCEKACELHTFGRTCKERCSGQEGCKSYVFCLPDPYGCSCATGWKGLQCNEACHPGFYGPDCKLRCSCNNGEMCDRFQGCLCSPGWQGLQCEREGIQRMTPKIVDLPDHIEVNSGKFNPICKASGWPLPTNEEMTLVKPDGTVLHPKDFNHTDHFSVAIFTIHRILPPDSGVWVCSVNTVAGMVEKPFNISVKVLPKPLNAPNVIDTGHNFAVINISSEPYFGDGPIKSKKLLYKPVNHYEAWQHIQVTNEIVTLNYLEPRTEYELCVQLVRRGEGGEGHPGPVRRFTTASIGLPPPRGLNLLPKSQTTLNLTWQPIFPSSEDDFYVEVERRSVQKSDQQNIKVPGNLTSVLLNNLHPREQYVVRARVNTKAQGEWSEDLTAWTLSDILPPQPENIKISNITHSSAVISWTILDGYSISSITIRYKVQGKNEDQHVDVKIKNATITQYQLKGLEPETAYQVDIFAENNIGSSNPAFSHELVTLPESQAPADLGGGKMLL
modifications: extracellular domain
  tumor metastasis: inhibited tumor metastasis
